From patent US20110300138A1 (published 2011)

How the values were obtained:
[1] = target: TSHR with Tyr206 mutated to Ala (human) (UniProt P16473); test: cell-based or functional assay
wild type TSHR (human) = wild type TSHR (human) (UniProt P16473); test: cell-based or functional assay
[2] = target: human TSHR (thyroid stimulating hormone receptor) expressed in transfected CHO cells (human) (UniProt P16473); test: cell-based or functional assay
[3] = target: TSH receptor (TSHR), full length human, coated on tubes (human) (UniProt P16473); test: inhibition of 125I-TSH binding to TSHR coated tubes; 1 µg/mL, diluted in assay buffer
[4] = target: wild type TSHR (human TSH receptor, full length) expressed in CHO cells (human) (UniProt P16473); test: cell-based or functional assay
[5] = target: TSHR with Gln235 mutated to Ala expressed in CHO cells (human) (UniProt P16473); test: cell-based or functional assay

## 5B3 IgG (antibody)
[1]
  % inhibition of TSH stimulation, 5B3 10 µg/mL, mutated TSHR: 10%
  % inhibition of TSH stimulation, 5B3 100 µg/mL, mutated TSHR: 9%
  Cyclic AMP produced (pmol/mL), 5B3 10 µg/mL + TSH 3 ng/mL, mutated TSHR: 74.6 pmol/mL
  Cyclic AMP produced (pmol/mL), 5B3 100 µg/mL + TSH 3 ng/mL, mutated TSHR: 75.2 pmol/mL
  Mutated/wild type (%) of cyclic AMP produced; 5B3 10 µg/mL + TSH 3 ng/mL: 79%
  Mutated/wild type (%) of cyclic AMP produced; 5B3 100 µg/mL + TSH 3 ng/mL: 74%
Wild type TSHR (human)
  % inhibition of TSH stimulation, 5B3 100 µg/mL, wild type TSHR: 0%
  Cyclic AMP produced (pmol/mL), 5B3 10 µg/mL + TSH 3 ng/mL, wild type TSHR: 94.5 pmol/mL
  Cyclic AMP produced (pmol/mL), 5B3 100 µg/mL + TSH 3 ng/mL, wild type TSHR: 101 pmol/mL
[2]
  % Inhibition; 10 ng/mL K1-18 IgG + 10 µg/mL 5B3 IgG: 4%
  % Inhibition; 10 ng/mL K1-18 IgG + 100 µg/mL 5B3 IgG: -13%
  Cyclic AMP concentration; 10 ng/mL K1-18 IgG + 10 µg/mL 5B3 IgG: 35.4 pmol/mL
  Cyclic AMP concentration; 10 ng/mL K1-18 IgG + 100 µg/mL 5B3 IgG: 41.9 pmol/mL
  Cyclic AMP concentration; 100 µg/mL 5B3 IgG: 1.3 pmol/mL
[3]
  Inhibition of binding (%): -1.7%
[4]
  % inhibition of TSH stimulation; 5B3 10 µg/mL: 0%
  % inhibition of TSH stimulation; 5B3 10 µg/mL; Experiment 1: 3%
  % inhibition of TSH stimulation; 5B3 10 µg/mL; Experiment 2: 0%
  % inhibition of TSH stimulation; 5B3 100 µg/mL: 0%
  % inhibition of TSH stimulation; 5B3 100 µg/mL; Experiment 1: 0%
  % inhibition of TSH stimulation; 5B3 100 µg/mL; Experiment 2: 0%
  Cyclic AMP produced; 5B3 10 µg/mL + TSH 3 ng/mL: 53.9 pmol/mL
  Cyclic AMP produced; 5B3 10 µg/mL + TSH 3 ng/mL; Experiment 1: 65.8 pmol/mL
  Cyclic AMP produced; 5B3 10 µg/mL + TSH 3 ng/mL; Experiment 2: 68.6 pmol/mL
  Cyclic AMP produced; 5B3 100 µg/mL + TSH 3 ng/mL: 52.6 pmol/mL
  Cyclic AMP produced; 5B3 100 µg/mL + TSH 3 ng/mL; Experiment 1: 68.5 pmol/mL
  Cyclic AMP produced; 5B3 100 µg/mL + TSH 3 ng/mL; Experiment 2: 66.5 pmol/mL
[5]
  Experiment 1: % inhibition of TSH stimulation; 5B3 10 µg/mL: 0%
  Experiment 1: % inhibition of TSH stimulation; 5B3 100 µg/mL: 0%
  Experiment 1: Mutated/wild type (%) of cyclic AMP produced; 5B3 10 µg/mL + TSH 3 ng/mL: 80%
  Experiment 1: Mutated/wild type (%) of cyclic AMP produced; 5B3 100 µg/mL + TSH 3 ng/mL: 63%
  Experiment 2: % inhibition of TSH stimulation; 5B3 10 µg/mL: 14%
  Experiment 2: % inhibition of TSH stimulation; 5B3 100 µg/mL: 0%
  Experiment 2: Mutated/wild type (%) of cyclic AMP produced; 5B3 10 µg/mL + TSH 3 ng/mL: 77%
  Experiment 2: Mutated/wild type (%) of cyclic AMP produced; 5B3 100 µg/mL + TSH 3 ng/mL: 95%

## TSH (ligand)
[1]
  % inhibition of TSH stimulation, TSH (2) run at the end of assay, mutated TSHR: 16%
  Cyclic AMP produced (pmol/mL), TSH 3 ng/mL, mutated TSHR: 82.9 pmol/mL
  Cyclic AMP produced (pmol/mL), TSH (2) 3 ng/mL run at the end of assay, mutated TSHR: 69.5 pmol/mL
  Mutated/wild type (%) of cyclic AMP produced; TSH 3 ng/mL: 90%
  Mutated/wild type (%) of cyclic AMP produced; TSH (2) 3 ng/mL, run at the end of assay: 64%
Wild type TSHR (human)
  Cyclic AMP produced (pmol/mL), TSH 3 ng/mL, wild type TSHR: 92.2 pmol/mL
  Cyclic AMP produced (pmol/mL), TSH (2) 3 ng/mL run at the end of assay, wild type TSHR: 108 pmol/mL
[4]
  % inhibition of TSH stimulation; TSH (2) control: 0%
  % inhibition of TSH stimulation; TSH (2) control; Experiment 1: 0.1%
  % inhibition of TSH stimulation; TSH (2) control; Experiment 2: 0%
  Cyclic AMP produced (pmol/mL), TSH 0.01 ng/mL, Experiment 1: 4.36 pmol/mL
  Cyclic AMP produced (pmol/mL), TSH 0.01 ng/mL, Experiment 2: 2.21 pmol/mL
  Cyclic AMP produced (pmol/mL), TSH 0.01 ng/mL, Experiment 3: 5.19 pmol/mL
  Cyclic AMP produced (pmol/mL), TSH 0.03 ng/mL, Experiment 1: 9.19 pmol/mL
  Cyclic AMP produced (pmol/mL), TSH 0.03 ng/mL, Experiment 2: 3.61 pmol/mL
  Cyclic AMP produced (pmol/mL), TSH 0.03 ng/mL, Experiment 3: 9.82 pmol/mL
  Cyclic AMP produced (pmol/mL), TSH 0.1 ng/mL, Experiment 1: 26.9 pmol/mL
  Cyclic AMP produced (pmol/mL), TSH 0.1 ng/mL, Experiment 2: 7.86 pmol/mL
  Cyclic AMP produced (pmol/mL), TSH 0.1 ng/mL, Experiment 3 (duplicate determination): 25 pmol/mL
  Cyclic AMP produced (pmol/mL), TSH 0.3 ng/mL, Experiment 1: 42 pmol/mL
  Cyclic AMP produced (pmol/mL), TSH 0.3 ng/mL, Experiment 2: 27.1 pmol/mL
  Cyclic AMP produced (pmol/mL), TSH 0.3 ng/mL, Experiment 3: 91.7 pmol/mL
  Cyclic AMP produced (pmol/mL), TSH 1 ng/mL, Experiment 1: 60.1 pmol/mL
  Cyclic AMP produced (pmol/mL), TSH 1 ng/mL, Experiment 2: 54.2 pmol/mL
  Cyclic AMP produced (pmol/mL), TSH 1 ng/mL, Experiment 3: 192 pmol/mL
  Cyclic AMP produced (pmol/mL), TSH 3 ng/mL, Experiment 1: 61.3 pmol/mL
  Cyclic AMP produced (pmol/mL), TSH 3 ng/mL, Experiment 2: 58.1 pmol/mL
  Cyclic AMP produced (pmol/mL), TSH 3 ng/mL, Experiment 3: 226 pmol/mL
  Cyclic AMP produced; TSH 3 ng/mL: 50 pmol/mL
  Cyclic AMP produced; TSH 3 ng/mL; Experiment 1: 67.7 pmol/mL
  Cyclic AMP produced; TSH 3 ng/mL; Experiment 2: 60.7 pmol/mL
  Cyclic AMP produced; TSH (2): 53.1 pmol/mL
  Cyclic AMP produced; TSH (2); Experiment 1: 67.5 pmol/mL
  Cyclic AMP produced; TSH (2); Experiment 2: 67.8 pmol/mL
[5]
  Cyclic AMP produced, TSH 0.01 ng/mL, Experiment 1: 1.75 pmol/mL
  Cyclic AMP produced, TSH 0.01 ng/mL, Experiment 2: 3.42 pmol/mL
  Cyclic AMP produced, TSH 0.03 ng/mL, Experiment 1: 2.89 pmol/mL
  Cyclic AMP produced, TSH 0.03 ng/mL, Experiment 2: 4.55 pmol/mL
  Cyclic AMP produced, TSH 0.1 ng/mL, Experiment 1: 5.97 pmol/mL
  Cyclic AMP produced, TSH 0.1 ng/mL, Experiment 2: 7.77 pmol/mL
  Cyclic AMP produced, TSH 0.3 ng/mL, Experiment 1: 17.6 pmol/mL
  Cyclic AMP produced, TSH 0.3 ng/mL, Experiment 2: 17.1 pmol/mL
  Cyclic AMP produced, TSH 1 ng/mL, Experiment 1: 44.2 pmol/mL
  Cyclic AMP produced, TSH 1 ng/mL, Experiment 2: 31.7 pmol/mL
  Cyclic AMP produced; TSH 3 ng/mL; Experiment 1: 46.6 pmol/mL
  Cyclic AMP produced; TSH 3 ng/mL; Experiment 2: 37.1 pmol/mL
  Experiment 1: % inhibition of TSH stimulation; TSH (2), run at the end of assay: 13%
  Experiment 1: Mutated/wild type (%) of cyclic AMP produced; TSH 3 ng/mL: 70%
  Experiment 1: Mutated/wild type (%) of cyclic AMP produced; TSH (2) 3 ng/mL, run at the end of assay: 61%
  Experiment 2: % inhibition of TSH stimulation; TSH (2), run at the end of assay: 3%
  Experiment 2: Mutated/wild type (%) of cyclic AMP produced; TSH 3 ng/mL: 100%
  Experiment 2: Mutated/wild type (%) of cyclic AMP produced; TSH (2) 3 ng/mL, run at the end of assay: 71%
  Mutated/Wild type (%) of cyclic AMP produced, TSH 0.01 ng/mL, Experiment 1: 161%
  Mutated/Wild type (%) of cyclic AMP produced, TSH 0.01 ng/mL, Experiment 2: 177%
  Mutated/Wild type (%) of cyclic AMP produced, TSH 0.03 ng/mL, Experiment 1: 125%
  Mutated/Wild type (%) of cyclic AMP produced, TSH 0.03 ng/mL, Experiment 2: 165%
  Mutated/Wild type (%) of cyclic AMP produced, TSH 0.1 ng/mL, Experiment 1: 91%
  Mutated/Wild type (%) of cyclic AMP produced, TSH 0.1 ng/mL, Experiment 2: 107%
  Mutated/Wild type (%) of cyclic AMP produced, TSH 0.3 ng/mL, Experiment 1: 67%
  Mutated/Wild type (%) of cyclic AMP produced, TSH 0.3 ng/mL, Experiment 2: 68%
  Mutated/Wild type (%) of cyclic AMP produced, TSH 1 ng/mL, Experiment 1: 65%
  Mutated/Wild type (%) of cyclic AMP produced, TSH 1 ng/mL, Experiment 2: 62%
  Mutated/wild type (%) of cyclic AMP produced; TSH 3 ng/mL; Experiment 1: 56%
  Mutated/wild type (%) of cyclic AMP produced; TSH 3 ng/mL; Experiment 2: 53%
